Data published in patent US20240065978A1, “FORMULATIONS OF GLUCAGON-LIKE-PEPTIDE-2 (GLP-2) ANALOGUES” (Zealand Pharma A/S, priority 2018, published 2024).

Assays:
[1] = in vivo; cited from earlier work
[2] = viscosity measured with microVISC viscosimeter; format: physicochemical; details: 20 mg/ml ZP1848-acetate, pH 7, acetate 6-15% (FIG. 2)
Experimental: In the examples below, the viscosity of the liquid formulations of the present invention is shown to be dependent on the total acetate concentration. Preferably, the formulations have a viscosity between 0.8 and 2.0 mPa/sec as measured at 25° C. Conveniently, the viscosity may be measured by using microVISC™. In parallel, the hydrodynamic radius may be measured using a Dynamic Light Scattering, DLS, Platereader (Wyatt DynaPro II). Samples were prepared having a drug substance (DS) of the GLP-2analogue containing 6% acetate and to mimic DS having 7.8-15% acetate, then acetate was added. Data from manufacturing formulations having varied the acetate concentration from 6.7-15% is shown below in FIG. 2. The effect of controlling the total acetate concentration is that the injectability of formulations of the present invention can be modulated, for example by reducing the total acetate concentration to provide a less viscous formulation that may be more easily injected.
Samples were prepared using a drug substance (DS) of the GLP-2 analogue ZP1848-acetate containing 6% acetate. […]
Vials were visually inspected for clarity and viscosity. The viscosity was measured using a microVISC™ viscosimeter. The hydrodynamic radius was measured using a Wyatt DynaPro II Dynamic Light Scattering (DLS) Platereader. […]

[3] = covalently linked oligomers by size exclusion HPLC (peak area %); format: physicochemical; details: for Covalently linked oligomers: 24 months at 2-8° C., 230 mM mannitol, 15 mM histidine, pH 7
Experimental: As shown in the examples, this amount of covalently bonded oligomers can be determined using size exclusion chromatography and determining the area under the peaks for monomeric GLP-2 analogue and oligomers respectively. This can be done using a Dionex Ultimate3000 HPLC system, giving a linear gradient, at a flow rate of 0.5 mL/min was used for the analysis. The mobile phase consisted of 0.1% TFA in 45% acetonitrile and 55% Milli-Q water. A wavelength of 215 nm was used for detection. This means that the formulations of the present invention generally contain the GLP-2 analogue at a concentration of about 2 mg/mL to about 30 mg/mL, more preferably at a concentration of about 15 mg/mL to about 25 mg/mL, and most preferably at a concentration of about 20 mg/mL. In some aspects of the present invention, it is preferred that the concentration of the GLP-2 analogue is selected so that the formulation contains 10% or less, more preferably 5% or less, more preferably 4% or less, more preferably 3% or less, and more preferably 2% or less of the GLP-2 analogue in the form of covalently bonded oligomeric products, preferably after 18 months storage. By way of illustration, the amount of covalently bonded oligomeric product may be in the range of between 2% to 5%, more preferably in the range of between 2% to 4%, and most preferably in the range of between 2% to 3%.
For detection of covalently linked oligomers, a Dionex Ultimate3000 HPLC system, giving a linear gradient, at a flow rate of 0.5 mL/min was used for the analysis. The mobile phase consisted of 0.1% TFA in 45% acetonitrile and 55% Milli-Q water. A wavelength of 215 nm was used for detection. The injection amount was 4 μg of peptide. The column used for the separation of the covalently formed peptides was a TSKgel SuperSW2000 (TSK BioScience) with a 4 μm particle size and dimensions of 300*4.6 mm. The overall runtime was 25 minutes. For chemical stability evaluation of the peptide monomer a C18 column with an acidic mobile phase and an acetonitrile gradient was used.
Stock solutions of mannitol (700 mM), L-histidine (200 mM) and ZP1848 peptide (acetate salt; 60 mg/mL) in water (Milli-Q) were prepared. Mannitol and histidine solutions were mixed in amounts appropriate to give 230 mM mannitol and 15 mM histidine. Peptide stock solution was added to a final concentration of 0.2, 2 and 20 mg/mL, respectively. Water was added up to 90% of final volume. If necessary, pH was adjusted to pH 7 using 1 M acetic acid/0.5 M L-arginine. Water was added up to the final volume.
The oligomers of ZP1848-acetate are well separated from the ZP1848-acetate monomer and are all integrated as one peak. The area percentage of the peaks was used to quantify the amount of oligomers, in particular covalently linked dimers and trimers. […]
(§1) Stock solutions of mannitol (700 mM), histidine (200 mM) and ZP1848 peptide solution (acetate salt; approx. 50 mg/mL) in Milli-Q water were prepared. Final concentration of peptide was 20 mg/mL, mannitol 230 mM, histidine 15 mM. Peptide stock solution was added to give the desired final peptide content. Water was added up to 90% of final volume. If necessary, pH was then adjusted to the desired formulation pH using 1 M acetic acid/0.5 M L-arginine. Water was added up to the final volume. Each formulation was filled in vials. Sample containers were visually inspected for clarity and viscosity and analysed for covalently linked oligomers by SEC, and peptide monomer stability by HPLC.

[4] = visual inspection for clarity and viscosity; format: physicochemical; details: 20 mg/mL; for Visual inspection Clear and non-viscous?: mannitol 230 mM, 24 hours at room temperature
Experimental: Stock solutions of mannitol (700 mM), phosphate buffer (200 mM) and ZP1848-acetate peptide (60.2 mg/mL) in water (Milli-Q) were prepared. Water was added up to 90% of final volume. If necessary, pH was then adjusted to the desired formulation pH using 1 M acetic acid/0.5 M L-arginine. Water was added up to the final volume. Sample containers were visually inspected for clarity and viscosity after 24 hours at room temperature.
Vials were visually inspected for clarity and viscosity. The viscosity was measured using a microVISC™ viscosimeter. The hydrodynamic radius was measured using a Wyatt DynaPro II Dynamic Light Scattering (DLS) Platereader. The sample size loaded on the plates was 170 μl. […]
as §1
Stock solutions of mannitol (700 mM), histidine (200 mM), and ZP1848 peptide solution (acetate salt; approx. 50 mg/mL) in Milli-Q water were prepared. Final concentration of peptide was 20 and 2 mg/mL, mannitol 230 mM, and histidine 15 mM. Water was added up to 90% of final volume. If necessary, pH was then adjusted to the desired formulation pH (7.0) using 1 M acetic acid/0.5 M L-arginine. Water was added up to the final volume. Each formulation was filled in vials. Sample containers were visually inspected for clarity and viscosity and analysed for peptide monomer stability by HPLC.

CC[C@H](C)[C@H](NC(=O)[C@H](Cc1ccccc1)NC(=O)[C@H](CC(=O)O)NC(=O)[C@H](CCCNC(=N)N)NC(=O)[C@H](C)NC(=O)[C@H](C)NC(=O)[C@H](CC(C)C)NC(=O)[C@H](CC(N)=O)NC(=O)[C@H](CC(=O)O)NC(=O)[C@H](CC(C)C)NC(=O)[C@@H](NC(=O)[C@@H](NC(=O)[C@H](CC(N)=O)NC(=O)[C@H](CCSC)NC(=O)[C@H](CCC(=O)O)NC(=O)[C@H](CC(=O)O)NC(=O)[C@H](CO)NC(=O)[C@H](Cc1ccccc1)NC(=O)[C@H](CO)NC(=O)CNC(=O)[C@H](CC(=O)O)NC(=O)CNC(=O)[C@@H](N)Cc1c[nH]cn1)[C@@H](C)O)[C@@H](C)CC)C(=O)N[C@@H](CC(N)=O)C(=O)N[C@@H](Cc1c[nH]c2ccccc12)C(=O)N[C@@H](CC(C)C)C(=O)N[C@H](C(=O)N[C@@H](CCC(N)=O)C(=O)N[C@H](C(=O)N[C@@H](CCCCN)C(=O)N[C@H](C(=O)N[C@H](C(=O)N[C@@H](CC(=O)O)C(=O)O)[C@@H](C)O)[C@@H](C)CC)[C@@H](C)O)[C@@H](C)CC [teduglutide]
half-life [1]: about two

(H-HGEGTFSSELATILDALAARDFIAWLIATKITDKKKKKK-NH2), x(CH3COOH) (also: acetate salt) [ZP1848-acetate]
viscosity as a function of acetate concentration [2]: increases in a non-linear manner at higher acetate concentration | Covalently linked oligomers ([3]; 0.2 mg/mL): 2.60% | formation of covalent oligomers, increase per week ([3]; 2 mg/mL, 3 weeks at 40° C.): 0.27% | formation of covalent oligomers ([3]; 2 mg/mL, after 3 weeks at 40° C.): 1.2% | formation of covalent oligomers, increase per week ([3]; 20 mg/mL, 3 weeks at 40° C.): 0.21% | Covalently linked oligomers ([3]; 20 mg/mL): 1.35% | formation of covalent oligomers ([3]; 20 mg/mL, after 3 weeks at 40° C.): 0.9% | concentration dependence for oligomer formation ([3]; long term storage at 2-8° C.): inversely dependent on increasing concentration of the GLP-2 analogue | formation of covalent oligomers ([3]; sorbitol, 3 weeks at 40° C.): 1.1% | Visual inspection ([4]; pH 6.5-7.5, 20-50 mM phosphate buffer, 24 hrs at room temperature): turbid and/or highly viscous

H-HGEGTFSSELATILDALAARDFIAWLIATKITDKKKKKK-NH2 [ZP1848]
Covalently linked oligomers ([3]; 2 mg/mL): 1.91% | initial value of the amount of oligomer ([3]; initial, before storage): less than 0.1% | Visual inspection Clear and non-viscous? ([4]; pH 6.5, phosphate 20 mM): No | Visual inspection Clear and non-viscous? ([4]; pH 7.0, phosphate 20 mM): No | Visual inspection Clear and non-viscous? ([4]; pH 7.0, phosphate 50 mM): No | Visual inspection Clear and non-viscous? ([4]; pH 7.5, phosphate 20 mM): No
